{"source": "patent US20260258152", "target": "activated Factor VIII (FVIIIa) (UniProt P00451)", "sequence (P00451 other isoform, or with tags, fused parts or gaps)": "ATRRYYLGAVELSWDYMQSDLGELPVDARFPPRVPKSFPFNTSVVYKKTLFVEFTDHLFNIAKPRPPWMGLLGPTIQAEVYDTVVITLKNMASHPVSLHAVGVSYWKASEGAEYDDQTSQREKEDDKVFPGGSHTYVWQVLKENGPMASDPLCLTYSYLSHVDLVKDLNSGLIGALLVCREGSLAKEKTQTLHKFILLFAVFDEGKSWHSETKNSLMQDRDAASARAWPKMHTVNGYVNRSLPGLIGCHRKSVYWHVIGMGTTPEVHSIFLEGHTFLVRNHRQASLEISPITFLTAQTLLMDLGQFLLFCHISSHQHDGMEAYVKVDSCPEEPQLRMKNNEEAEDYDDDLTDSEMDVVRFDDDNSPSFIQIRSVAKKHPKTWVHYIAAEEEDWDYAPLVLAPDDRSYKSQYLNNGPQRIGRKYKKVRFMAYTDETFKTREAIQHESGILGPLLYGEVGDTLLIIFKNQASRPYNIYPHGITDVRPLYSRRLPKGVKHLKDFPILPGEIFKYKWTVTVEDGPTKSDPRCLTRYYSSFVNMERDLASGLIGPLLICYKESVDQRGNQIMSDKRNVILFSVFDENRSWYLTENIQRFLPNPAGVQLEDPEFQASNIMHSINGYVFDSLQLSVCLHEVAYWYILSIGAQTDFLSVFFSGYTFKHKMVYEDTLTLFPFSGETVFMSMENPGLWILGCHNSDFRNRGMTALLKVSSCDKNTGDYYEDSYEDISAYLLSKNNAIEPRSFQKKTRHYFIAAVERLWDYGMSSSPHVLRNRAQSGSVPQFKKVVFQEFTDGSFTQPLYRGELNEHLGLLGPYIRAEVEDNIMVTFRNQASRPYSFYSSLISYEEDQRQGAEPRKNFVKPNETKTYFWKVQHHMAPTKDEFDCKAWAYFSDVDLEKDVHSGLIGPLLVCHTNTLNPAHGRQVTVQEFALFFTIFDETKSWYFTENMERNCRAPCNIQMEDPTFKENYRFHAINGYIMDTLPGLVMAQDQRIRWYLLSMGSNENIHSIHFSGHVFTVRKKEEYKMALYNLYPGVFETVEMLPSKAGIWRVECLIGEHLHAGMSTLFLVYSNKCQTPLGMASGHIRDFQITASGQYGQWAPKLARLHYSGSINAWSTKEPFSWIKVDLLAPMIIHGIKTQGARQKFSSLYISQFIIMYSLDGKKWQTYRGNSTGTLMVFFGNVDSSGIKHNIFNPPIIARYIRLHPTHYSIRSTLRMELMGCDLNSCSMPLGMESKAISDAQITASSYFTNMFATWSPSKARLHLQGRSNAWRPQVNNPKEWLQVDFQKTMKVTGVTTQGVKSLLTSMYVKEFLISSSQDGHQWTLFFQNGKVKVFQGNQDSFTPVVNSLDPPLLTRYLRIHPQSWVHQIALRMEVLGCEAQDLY"}
{"substance": "Factor IX G93S (hemophilia B-causing FIX variant)", "values": [{"measurement": "FIX activity without the FVIIIa-mimetic", "result": "only 0.1% and 2% activity without the FVIIIa-mimetic"}, {"measurement": "FIX activity, one-stage aPTT clotting assay with and without 300 nM emicizumab", "result": "I397T, E387K, R338P, and G93S all substantially increase their activity with the addition of emicizumab"}]}
